Where two headings read alike, the source gives them in different places.
How the values were obtained:
Test in all cases: cell-based or functional assay
[1] = target: T1, recombinant human TFPI (tissue factor pathway inhibitor) (human, UniProt P10646 29-304)
[2] = target: T1, recombinant human TFPI (tissue factor …); remark: listed apart in the source
[3] = target: T1, recombinant human TFPI (tissue factor …); remark: listed apart in the source
[4] = target: T1, recombinant human TFPI (tissue factor …); remark: listed apart in the source
[5] = target: T1, recombinant human TFPI (tissue factor …); remark: listed apart in the source

B1: clone 11 (antibody, V domains shown)
VH: EVQLVESGGGLVKPGGSLRLSCAASGFTFSSYAMNWVRQAPGKGLEWVGTITTGGSYTYYADSVEGRFTISRDNAKNSLYLQMNSLRAEDTAVYYCARQDGNFLMDYWGQGTLVTVSS
VL: DVVMTQTPLSLPVTLGQPASISCKSSPSLLDIDGKTYLNWLQQRPGQSPKRLIYLVSKLDSGVPDRFTGSGSGTDFTLKISRVEAEDVGVYYCWQGTHFPFTFGQGTKVEIKR
**Q.** For B1, which “effect of inhibiting TFPI, FXa activity assay, Ab 10 nM” value [1] is on record?
**A.** Its value is roughly 81%.

**Q.** And the “effect of inhibiting TFPI, FXa activity assay, Ab 20 nM” value [1]?
**A.** The value was roughly 89%.

**Q.** And the “FXa assay % of FXa alone, 2.5 nM Ab, 10 nM TFPI” value [2]?
**A.** The value was 7%.

**Q.** And the “FXa assay % of FXa alone, 5 nM Ab, 10 nM TFPI” value [2]?
**A.** The value was 29.6%.

**Q.** And the “FXa assay OD, 2.5 nM Ab, 10 nM TFPI” value [2]?
**A.** Its value is 0.0575.

**Q.** What about the “FXa assay OD, 5 nM Ab, 10 nM TFPI” value [2] of the same binder?
**A.** The value was 0.244.

**Q.** What about the “FXa assay OD, 10 nM Ab, 10 nM TFPI” value [2] of the same binder?
**A.** The value was 0.672.

**Q.** And the “FXa assay OD, 20 nM Ab, 10 nM TFPI” value [2]?
**A.** Its value is 0.734.

B2: clone 1214 (antibody, V domains shown)
VH: EVQLVESGGGLVKPGGSLRLSCAASGFTFSSYAMNWVRQAPGKGLEWVSTITTGGSYTYYADSVEGRFTISRDNAKNSLYLQMNSLRAEDTAVYYCARQDGNFLMDYWGQGTLVTVSS
VL: DVVMTQTPLSLPVTLGQPASISCKSSQSLLDVDGKTYLNWLQQRPGQSPKRLIYLVSKLDSGVPDRFTGSGSGTDFTLKISRVEAEDVGVYYCWQGTHFPFTFGQGTKVEIKR
**Q.** B2 was tested. Which “effect of inhibiting TFPI, FXa activity assay, Ab 10 nM” value [1] did it give?
**A.** Its value is roughly 63%.

**Q.** What about the “effect of inhibiting TFPI, FXa activity assay, Ab 20 nM” value [1] of the same binder?
**A.** The value was roughly 77%.

**Q.** What about the “FXa assay % of FXa alone, 2.5 nM Ab, 10 nM TFPI” value [3] of the same binder?
**A.** The value was 6.9%.

**Q.** What about the “FXa assay % of FXa alone, 5 nM Ab, 10 nM TFPI” value [3] of the same binder?
**A.** Its value is 23.2%.

**Q.** And the “FXa assay OD, 2.5 nM Ab, 10 nM TFPI” value [3]?
**A.** The value was 0.06.

**Q.** What about the “FXa assay OD, 5 nM Ab, 10 nM TFPI” value [3] of the same binder?
**A.** The value was 0.202.

**Q.** And the “FXa assay OD, 10 nM Ab, 10 nM TFPI” value [3]?
**A.** The value was 0.545.

**Q.** What about the “FXa assay OD, 20 nM Ab, 10 nM TFPI” value [3] of the same binder?
**A.** The value was 0.672.

B3: clone A63 (antibody, V domains shown)
VH: EVQLVESGGGLVKPGGSLRLSCAASGFTFSSYAMNWVRQAPGKGLEWVSTITTGGSYTYYADSVQGRFTISRDNAKNSLYLQMNSLRAEDTAVYYCARQDGNFLMDYWGQGTLVTVSS
VL: DVVMTQTPLSLPVTLGQPASISCKSSQSLLDVDGKTYLNWLQQRPGQSPKRLIYLVSKLDSGVPDRFTGSGSGTDFTLKISRVEAEDVGVYYCWQGTHFPFTFGQGTKVEIKR
**Q.** With B3 as the binder, how does the “FXa assay % of FXa alone, 2.5 nM Ab, 10 nM TFPI” value [4] read?
**A.** Its value is 4.8%.

**Q.** What about the “FXa assay % of FXa alone, 5 nM Ab, 10 nM TFPI” value [4] of the same binder?
**A.** Its value is 5.3%.

**Q.** What about the “FXa assay % of FXa alone, 10 nM Ab, 10 nM TFPI” value [4] of the same binder?
**A.** The value was 4.5%.

**Q.** And the “FXa assay % of FXa alone, 20 nM Ab, 10 nM TFPI” value [4]?
**A.** The value was 5.6%.

B4: clone A25 (antibody, V domains shown)
VH: EVQLVESGGGLVKPGGSLRLSCAASGFTFSSYAMNWVRQAPGKGLEWVSTITTGGSHTYYADSVEGRFTISRDNAKNSLYLQMNSLRAEDTAVYYCARQDGNFLMDYWGQGTLVTVSS
VL: DVVMTQTPLSLPVTLGQPASISCKSSQSLLDRDGKTYLNWLQQRPGQSPKRLIYLVSKLDSGVPDRFTGSGSGTDFTLKISRVEAEDVGVYYCWQGTHFPFTFGQGTKVEIKR
**Q.** How did the “FXa assay % of FXa alone, 2.5 nM Ab, 10 nM TFPI” value [4] turn out when B4 was run?
**A.** Its value is 5.6%.

**Q.** What about the “FXa assay % of FXa alone, 10 nM Ab, 10 nM TFPI” value [4] of the same binder?
**A.** Its value is 5.3%.

B5: clone 3024 (antibody, V domains shown)
VH: EVQLVESGGGLVKPGGSLRLSCAASGFTFSSYAMSWVRQAPGKGLEWVSTITTGGSYTYYADSVQGRFTISRDNAKNSLYLQMNSLRAEDTAVYYCARQDGNFLMDYWGQGTLVTVSS
VL: DVVMTQTPLSLPVTLGQPASISCKSSQSLLDSDGKTYLNWLQQRPGQSPKRLIYLVSKLDSGVPDRFTGSGSGTDFTLKISRVEAEDVGVYYCWQGTHLPFTFGQGTKVEIKR
**Q.** For B5, which “FXa assay % of FXa alone, 2.5 nM Ab, 10 nM TFPI” value [5] is on record?
**A.** Its value is 3.6%.

**Q.** And the “FXa assay % of FXa alone, 5 nM Ab, 10 nM TFPI” value [5]?
**A.** Its value is 4.2%.

**Q.** What about the “FXa assay % of FXa alone, 10 nM Ab, 10 nM TFPI” value [5] of the same binder?
**A.** The value was 6.6%.

**Q.** And the “FXa assay % of FXa alone, 20 nM Ab, 10 nM TFPI” value [5]?
**A.** The value was 32.5%.

**Q.** And the “FXa assay OD, 2.5 nM Ab, 10 nM TFPI” value [5]?
**A.** The value was 0.026.

**Q.** And the “FXa assay OD, 20 nM Ab, 10 nM TFPI” value [5]?
**A.** Its value is 0.234.

B6: clone A24 (antibody, V domains shown)
VH: EVQLVESGGGLVKPGGSLRLSCAASGFTFHSYAMNWVRQAPGKGLEWVSTITTRGSYTYYADSVEGRFTISRDNAKNSLYLQMNSLRAEDTAVYYCARQDGNFLMDYWGQGTLVTVSS
VL: DVVMTQTPLSLPVTLGQPASISCKSSQSLLDVDGKTYLNWLQQRPGQSPKRLIYLVSKLDSGVPDRFTGSGSGTDFTLKISRVEAEDVGVYYCWQGTHFPFTFGQGTKVEIKR
**Q.** For B6, which “FXa assay % of FXa alone, 2.5 nM Ab, 10 nM TFPI” value [4] is on record?
**A.** Its value is 5%.

**Q.** And the “FXa assay % of FXa alone, 20 nM Ab, 10 nM TFPI” value [4]?
**A.** Its value is 4%.
